Article PMC5425828

Biological target: T1, Sco1678 (GntR-His) (Streptomyces coelicolor M145) (UniProt Q9AD89)
T1 sequence: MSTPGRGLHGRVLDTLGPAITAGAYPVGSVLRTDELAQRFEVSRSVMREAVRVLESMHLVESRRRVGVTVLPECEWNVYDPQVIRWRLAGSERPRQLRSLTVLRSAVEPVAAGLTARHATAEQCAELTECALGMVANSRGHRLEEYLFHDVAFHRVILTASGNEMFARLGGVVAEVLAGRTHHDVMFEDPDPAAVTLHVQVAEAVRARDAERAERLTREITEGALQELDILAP
Test: EMSA
Settings: 20 mM Tris/HCl pH 7.5, 50 mM KCl, 10 mM MgCl2, 5% (v/v) glycerol, 0.5 mM EDTA, 25 min at 25 C; 0.2 pmol Cy5 probe, 0.93-4.18 pmol protein; 8% native PAGE, 1x …

Sequence: AGCCAGTGGCGATAAGCGTCGTACTCCTGTTCCTGCCGGCCGGTGCGTGGTGCGGCTATATGACCAGGGACAACAGCAGGACCAGGGCACCGGCGACCACCGAGATGATCGTCTCCATGACGGACCAGGTCTTGATGGTCTGCCCCACGTTCAGCCCGAAGTACTCCTTCACCAGCCAGCTTATCGCCACTGGCT (double strand) [gntZ promoter region]
- binding: no binding

Sequence: AGCCAGTGGCGATAAGGTTGCTGCATCGCACTCTCGCTGTCTGCTGTCTTCGTCGACACCTGATGTCGACGCAACTGAAACTCATTAGTACGACAACTTCAAGAGTCTGTGACGTATAAGTCTGACTTTTTGTTCCCGTGACATGCCCCGTACGCTGAGTGCATGAGCACACCGGGCCGGGGGCTGCACGGCCGCGTACTGGACACCCTCGGCCCCGCGATCACAGCTTATCGCCACTGGCT (double strand) [gntR-gntK intergeneric region]
- binding: binds
